Assay results taken from US6191256A, “Recombinant factor VIII binding peptides” (Bayer Corporation, priority 1998, dated 2001).

Tests used:
rFVIII [1] = target: T1, rFVIII (Homo sapiens, UniProt P00451); assay: confirmatory binding assay in filtration plate format using 14C-rFVIII; settings: Table 4; for Total dpm / beads % total / beads dpm: 14C-rFVIII 30 nM; for 0.5M CaCl2 % total / 2% acetic acid % total / 2% acetic acid dpm / 0.5M CaCl2 dpm: 14C-rFVIII 30 nM in PPF, 5 mg beads; for 0.5M CaCl2 dpm: 5.0 × 10^15 dpm/mole, 5° C.; for beads % total / beads dpm: remaining on beads after washes
T1 sequence (P00451 20-2351): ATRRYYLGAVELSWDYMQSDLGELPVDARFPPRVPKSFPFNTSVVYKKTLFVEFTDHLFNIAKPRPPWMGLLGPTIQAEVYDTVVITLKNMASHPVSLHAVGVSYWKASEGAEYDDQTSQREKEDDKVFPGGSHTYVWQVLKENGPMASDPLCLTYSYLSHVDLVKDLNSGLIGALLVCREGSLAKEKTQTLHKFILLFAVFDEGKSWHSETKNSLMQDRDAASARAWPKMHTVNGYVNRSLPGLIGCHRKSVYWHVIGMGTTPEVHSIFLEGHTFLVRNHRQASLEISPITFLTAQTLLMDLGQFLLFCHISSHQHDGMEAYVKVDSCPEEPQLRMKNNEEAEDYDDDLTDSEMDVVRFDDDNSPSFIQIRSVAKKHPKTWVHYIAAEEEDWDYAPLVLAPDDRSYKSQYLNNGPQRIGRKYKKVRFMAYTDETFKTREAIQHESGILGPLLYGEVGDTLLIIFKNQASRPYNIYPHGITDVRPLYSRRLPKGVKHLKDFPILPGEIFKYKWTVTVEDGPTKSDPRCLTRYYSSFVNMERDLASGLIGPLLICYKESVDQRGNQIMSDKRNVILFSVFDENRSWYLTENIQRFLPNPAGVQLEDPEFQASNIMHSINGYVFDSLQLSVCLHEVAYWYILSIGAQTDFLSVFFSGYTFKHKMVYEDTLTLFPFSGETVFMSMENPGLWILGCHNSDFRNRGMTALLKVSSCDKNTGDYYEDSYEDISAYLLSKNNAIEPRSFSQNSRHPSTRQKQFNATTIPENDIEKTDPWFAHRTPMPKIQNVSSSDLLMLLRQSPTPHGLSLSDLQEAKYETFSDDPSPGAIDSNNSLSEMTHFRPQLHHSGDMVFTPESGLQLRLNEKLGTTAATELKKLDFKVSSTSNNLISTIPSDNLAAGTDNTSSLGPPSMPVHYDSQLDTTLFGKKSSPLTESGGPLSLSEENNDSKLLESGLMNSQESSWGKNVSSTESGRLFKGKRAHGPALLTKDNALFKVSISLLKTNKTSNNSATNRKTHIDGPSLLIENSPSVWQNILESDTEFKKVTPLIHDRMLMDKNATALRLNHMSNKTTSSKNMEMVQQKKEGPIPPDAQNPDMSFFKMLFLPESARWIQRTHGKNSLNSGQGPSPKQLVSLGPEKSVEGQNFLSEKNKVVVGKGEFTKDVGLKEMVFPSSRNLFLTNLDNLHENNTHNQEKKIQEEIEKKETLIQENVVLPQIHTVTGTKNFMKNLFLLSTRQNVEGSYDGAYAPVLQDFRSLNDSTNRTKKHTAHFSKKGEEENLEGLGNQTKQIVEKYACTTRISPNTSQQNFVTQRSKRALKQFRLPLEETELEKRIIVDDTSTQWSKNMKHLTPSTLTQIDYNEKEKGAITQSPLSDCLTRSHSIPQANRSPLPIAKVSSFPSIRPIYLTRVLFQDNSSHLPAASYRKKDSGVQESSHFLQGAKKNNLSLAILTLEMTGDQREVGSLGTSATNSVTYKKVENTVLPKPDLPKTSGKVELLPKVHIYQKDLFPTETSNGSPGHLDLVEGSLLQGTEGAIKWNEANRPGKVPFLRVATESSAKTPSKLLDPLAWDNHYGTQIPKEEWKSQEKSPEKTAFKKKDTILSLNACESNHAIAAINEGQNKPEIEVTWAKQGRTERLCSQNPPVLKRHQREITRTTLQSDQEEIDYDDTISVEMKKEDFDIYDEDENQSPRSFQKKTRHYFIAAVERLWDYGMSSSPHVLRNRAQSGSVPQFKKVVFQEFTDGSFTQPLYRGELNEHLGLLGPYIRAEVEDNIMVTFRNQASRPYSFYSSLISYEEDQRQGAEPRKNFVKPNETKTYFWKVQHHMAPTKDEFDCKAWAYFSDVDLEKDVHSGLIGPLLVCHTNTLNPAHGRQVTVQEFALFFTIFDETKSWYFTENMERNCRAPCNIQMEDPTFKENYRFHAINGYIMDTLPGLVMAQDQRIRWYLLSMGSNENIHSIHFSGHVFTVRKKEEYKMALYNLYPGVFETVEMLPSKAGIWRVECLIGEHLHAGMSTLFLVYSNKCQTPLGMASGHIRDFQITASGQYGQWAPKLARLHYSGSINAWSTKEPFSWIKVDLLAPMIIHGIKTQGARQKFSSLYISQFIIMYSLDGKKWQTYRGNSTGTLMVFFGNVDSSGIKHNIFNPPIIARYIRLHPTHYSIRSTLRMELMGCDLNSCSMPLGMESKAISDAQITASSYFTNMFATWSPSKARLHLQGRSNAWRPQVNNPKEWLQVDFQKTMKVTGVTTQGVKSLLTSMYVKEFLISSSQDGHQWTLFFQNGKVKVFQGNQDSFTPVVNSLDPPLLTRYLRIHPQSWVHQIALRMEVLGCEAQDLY
T1 sequence (P00451 1668-2351 limits assumed): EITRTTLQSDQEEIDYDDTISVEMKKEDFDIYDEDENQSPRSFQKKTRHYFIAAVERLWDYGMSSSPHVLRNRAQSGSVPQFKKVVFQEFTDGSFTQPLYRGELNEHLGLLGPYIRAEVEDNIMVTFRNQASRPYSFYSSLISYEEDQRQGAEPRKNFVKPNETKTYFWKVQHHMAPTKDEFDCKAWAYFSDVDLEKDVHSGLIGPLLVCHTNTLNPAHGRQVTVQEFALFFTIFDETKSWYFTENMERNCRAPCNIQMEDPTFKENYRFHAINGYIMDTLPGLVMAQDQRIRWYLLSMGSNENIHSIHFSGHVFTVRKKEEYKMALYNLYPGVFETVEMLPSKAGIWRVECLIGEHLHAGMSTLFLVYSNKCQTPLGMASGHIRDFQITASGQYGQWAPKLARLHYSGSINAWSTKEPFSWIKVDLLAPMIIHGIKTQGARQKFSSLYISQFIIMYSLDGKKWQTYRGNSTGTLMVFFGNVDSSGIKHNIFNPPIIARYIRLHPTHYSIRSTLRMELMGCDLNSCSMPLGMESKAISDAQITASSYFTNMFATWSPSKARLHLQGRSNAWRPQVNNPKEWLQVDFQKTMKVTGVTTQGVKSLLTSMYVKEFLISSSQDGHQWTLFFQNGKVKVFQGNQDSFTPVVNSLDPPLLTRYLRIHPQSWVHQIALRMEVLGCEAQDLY
In short: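 Peptides synthesized on TOYOPEARL AF amino 650 M resin (0.1 mmole/g) were tested in triplicate after equilibration in 20 mM imidazole, 10 mM CaCl2, 0.105 M NaCl, pH 6.9. The beads were incubated 1 hour at 5° C with 20-30 nM 14C-rFVIII in neat PPF, then washed with buffer, 0.5 M and 1.0 M CaCl2, and 2% acetic acid. Mass balance was taken from dpm of each fraction and of the beads.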

rFVIII [2] = target: T1, rFVIII; assay: column format binding assay, rFVIII mass per fraction by sandwich capture ELISA for the light chain; settings: for 0.5M CaCl2 ng / 0.5M CaCl2 % total / 2% acetic acid % total / 2% acetic acid ng / Flow through % total / Total ng / Flow through ng: Table 6; for Flow through ng: 10,000 ng rFVIII in 1:10 PPF injected, 5° C.
In short: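 Peptide resin columns (0.4×5 cm, 5 °C) loaded with 10,000 ng rFVIII in 1:10 PPF, 10 min residence time; step elution with 0.5 M and 1.0 M CaCl2 then 2% acetic acid (neutralized). Fraction rFVIII mass by light-chain sandwich ELISA; activity by chromogenic substrate; total protein by A280.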

rFVIII [3] = target: T1, rFVIII; assay: rFVIII activity recovery from peptide columns by chromogenic substrate assay (COATEST); assay type: biochemical; settings: for 0.5M CaCl2 IU / 2% acetic acid % total / 2% acetic acid IU / Flow through % total / Total IU / 0.5M CaCl2 % total / Flow through IU: Table 8; for 0.5M CaCl2 % total: activity recovery; for Flow through IU: rFVIII activity in fraction
In short: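 Peptide resin columns (0.4×5 cm, 5°C) loaded with 10,000 ng rFVIII in 1:10 PPF, step-eluted with 0.5 M and 1.0 M CaCl2, then 2% acetic acid (neutralized with Tris). Fractions stabilized with hSA; rFVIII activity recovery by chromogenic substrate assay against a MEGA 1-calibrated standard.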

Substance | Total dpm (rFVIII [1]) [dpm] | 0.5M CaCl2 % total (rFVIII [1]) [%] | 2% acetic acid % total (rFVIII [1]) [%] | 2% acetic acid dpm (rFVIII [1]) [dpm] | 0.5M CaCl2 dpm (rFVIII [1]) [dpm] | beads % total (rFVIII [1]) [%] | beads dpm (rFVIII [1]) [dpm] | 0.5M CaCl2 ng (rFVIII [2]) [ng] | 0.5M CaCl2 % total (rFVIII [2]) [%] | 2% acetic acid % total (rFVIII [2]) [%] | 2% acetic acid ng (rFVIII [2]) [ng] | Flow through % total (rFVIII [2]) [%] | Total ng (rFVIII [2]) [ng] | Flow through ng (rFVIII [2]) [ng] | 0.5M CaCl2 IU (rFVIII [3]) [IU] | 2% acetic acid % total (rFVIII [3]) [%] | 2% acetic acid IU (rFVIII [3]) [IU] | Flow through % total (rFVIII [3]) [%] | Total IU (rFVIII [3]) [IU] | 0.5M CaCl2 % total (rFVIII [3]) [%] | other results
15 (VYGVGG) [compound 15] | 2330 | 93 | 5 | 115 | 2162 | 2 | 53 | 4611 | 55 | 1 | 121 | 42 | 8427 | 3572 | 27.2 | 0 | 0.08 | 38 | 45.4 | 60 | ELISA results % total (rFVIII [2]; Table 9, 0.5M CaCl2 fraction): 55%; Flow through IU (rFVIII [3]): 17.3 IU; Activity results % total (rFVIII [3]; Table 9, 0.5M CaCl2 fraction): 60%
19 (FHFGLQ) [compound 19] | 2987 | 15 | 72 | 2148 | 457 | 13 | 382 | 1075 | 25 | 60 | 2569 | 0 | 4283 | 0 | 9.9 | 7 | 1.4 | 2 | 19.5 | 51 | Flow through IU (rFVIII [3]): 0.5 IU
20 (WHHHRG) [compound 20] | 3884 | 12 | 54 | 2099 | 485 | 33 | 1300 | 36 | 1 | 95 | 4719 | 0 | 4966 | 0 | 0.4 | 45 | 3.5 | 0 | 7.8 | 4 | Flow through IU (rFVIII [3]): 0.0 IU
